According to the supplement of paper PMC12636428:

Tested on: Saccharomyces cerevisiae
Experiment: transcriptional activation domain activity (GFP:mCherry ratio, weighted mean of sorted bins, harmonized to initial dataset scale) (arbitrary fluorescence ratio units); higher = stronger transcriptional activation
Conditions: beta-estradiol 1 µM; induction time 4 h
Summary of the method: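 Sorting into 8 bins by GFP:mCherry ratio followed a 4-hour hold at 30 °C after cultures were diluted 1:5 into SC with 1 uM beta-estradiol. The yeast diploids carried a GFP reporter and had barcoded protein tiles, fused to an estradiol-inducible synthetic transcription factor, integrated at URA3. Barcodes were then sequenced, and tiles with under 50 reads were removed. Activation activity is the read-weighted mean of bin median fluorescence, averaged across barcodes and linearly mapped onto the initial dataset scale.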

## SLYRVWDCKSTMLAFSKYIPQIHSPSALEYALVSMGSDFVLFLLRRIFEILKK
  transcriptional activation domain activity: 55500

## NSLKGMAVDFRWWLLAHKKRPLREVNLILQLDSLTEVIKLACVSPKLSFLCIM
  transcriptional activation domain activity: 71000

## SSSNSGGGGGVPEHILARVGYAVVSGLHFLKTKLNVIHRDVKPSNVLCSRAGD
  transcriptional activation domain activity: 42900

## SREGKGGGAGRGKGGEQGGGMGEGKQGGGGGEAERGSREGKQRGEAGGRGKEE
  transcriptional activation domain activity: 44600

## ISSSEKESDGENDSDSEENEQNDQSEIFPEFLGRRDPWQAVTVFILALLVFRN
  transcriptional activation domain activity: 66500

## LLWFYFLFLFCIFCWWLRYASSLVPNICHIHVIHDLADAFMHIRFVLFISILS
  transcriptional activation domain activity: 72300

## REGEGRGERGREGAGRERGGGKGVGGGEGGGERTIRLKGRKGDSNETTRRKEE
  transcriptional activation domain activity: 31700

## GVCLKVGITKPKKPNSAERKTARVRLSTGRVVTAYIPGEGHNVQQHSVVLVRG
  transcriptional activation domain activity: 39500

## EHPARARVDKNRTKTSAREVHPARAAREEHPARAYADKNRTKTSARDVHPAGA
  transcriptional activation domain activity: 40400

## KQSWSYFYKVLQGLLMDLFFIITIPIYFYYYLPNWNPPLWTLLDFTTLESLNF
  transcriptional activation domain activity: 69000

## TPIDVETDDPDIYIKPALDGSLNLLTSIVRYGQVIRGLSSCIIHLFNNVHLVR
  transcriptional activation domain activity: 43000

## MLLGCRKRYSAHPFNDFLSFFIFYSSLFFYSLLSPFPFPPHSTPVTSFFILFY
  transcriptional activation domain activity: 53700

## MRLEVFCPLANATSHAYLIFCIMHCLYFIRHFFCCRSLSTFYSSRLLLLFHFI
  transcriptional activation domain activity: 80900

## MLCYAVLWYFVYITFFYINYDMVFLISYLVFLKQLIDRICIIIFIFSFIFFIF
  transcriptional activation domain activity: 47400

## RKARQAQGAQGGGGGGAGGPGARGGARGGRVGGERGGRGGGRGGERGRGRGRG
  transcriptional activation domain activity: 51400

## DLDFRGIFMTDWYANYDYMVSDLIMPGFWRVPVLPKWYNWTGFFASWPLIGQF
  transcriptional activation domain activity: 68800

## SAGTAQAGKKPRILLKVNGRSYQRVDCVGRGGSGKVYKVTAENGKMFAMKRVS
  transcriptional activation domain activity: 45100

## ALVADPEYQRELDYMANGKQLLVPLRYLLNLVWRYCHGAQTICFSFFLLHGRN
  transcriptional activation domain activity: 64200

## MAASDGPSPKKRKFARAVNTCAPCARRKVKCDRESHAPCSNCRKRRETALCEP
  transcriptional activation domain activity: 9660

## MAAIDHDKVAKFVGGNSLDKATPGDVTDFVRKNGGHTVITKVLIANNGIAAVK
  transcriptional activation domain activity: 45000

## MAGIVTRVCLILCSPLFPLSLRNFIILHCVYLPLSNSWYISPPFLLYCLQTVY
  transcriptional activation domain activity: 62700

## KAAVPKTKAAPKAKAVKAPKEKKAAAPKAKAAAKPKAAPKAKKAAAPKAAPAV
  transcriptional activation domain activity: 29000

## YYAECCTHTGNAHKVQRKMLNPVFTTKHMKARMWYQFMLLFLKEALMNELKGY
  transcriptional activation domain activity: 14300

## MLHGSGAVFGSGFLSLVSLVLWLISYYCCTWTWKGIFILSICFFNTCIYIECI
  transcriptional activation domain activity: 49800

## MPFFSDFLFLFLFFFLEFFFFFFLPGFRLGYSSLFSSLLFFFFGFPIPPPHLS
  transcriptional activation domain activity: 46200

## IVVYGANGGNLGENCNREFSERCVPVFRARATVFAELTWLILVSAWEFKSIRR
  transcriptional activation domain activity: 51000

## SASSRESSASASHSASKSESSAAASRTSSAPATQSTGAAVANRAGVVGAVAGG
  transcriptional activation domain activity: 57700

## SNASLSAQHPLGIDEEDLSSKPRCQRCRKSKKGCDRQRPCGRCKDAGIGIEGC
  transcriptional activation domain activity: 35300

## FALMLREPAIQDVMSLLITTMSKFMDWFDFLDLIVTYPEFPDPKWLTTLFLIL
  transcriptional activation domain activity: 23900

## FVYELWRHGGLGVYSFRLTELLVKVVLEAECKEIMDWWLEKQGYILHDLHRKA
  transcriptional activation domain activity: 50300

## MPPTSSSVSRSSFSRGRTSSCRPRYSSSRPTSSSTSGSSRRTARSSPSASPRS
  transcriptional activation domain activity: 11000

## YREIPPEQLHGFPRIVDDINYNPVFLFDTFAAYTTLINYWMHMLILRSNTFLL
  transcriptional activation domain activity: 53100

## MGCILIFIFTFPYTPSFPFPFWFLFFVFLSFSFSFQKFLVFSFLSFVWVTVGR
  transcriptional activation domain activity: 51700

## VMPTWLWMPLLLVANFFCRFFLFHLIICSYIYPLLYVQLMWVFWFIWRGVFSF
  transcriptional activation domain activity: 55700

## MFIVCLFLFMILHYSFMFYIFGSNYLLLLLLVLLSWWFFLLYFPTFIFLFGVL
  transcriptional activation domain activity: 48700

## RLFAELFMFSICLFSRVLSYFSVFQLQLINVLMYFLPLMIICGYWAGLLNVAI
  transcriptional activation domain activity: 52500

## MSSTPNCARQQPNRSESARNRTKDNCAACREKRLKCDKDGGRKTCSSDSQPSS
  transcriptional activation domain activity: 37400

## GFAKDTQDEEYVQHHDNVNPTIPPPDNYILNNENDDGLDNLLGMDYYNIDDLL
  transcriptional activation domain activity: 101000

## WLSDENDGASHINVNKDSSSVLSASSSTWFEPLENIISSASSSSIGSPIEDQF
  transcriptional activation domain activity: 60800

## NGQRFVQLLCNECGTVLELSVLLASVYLSLNMGDLVRLQPGCLYESQKRQWGP
  transcriptional activation domain activity: 16300

## SGSGAEGASGTEHRRRASTRGRGRGRGRGGRAGRGGRAKTNGEGAELAGEEAG
  transcriptional activation domain activity: < 6570

## EEEEPSDEGEGEELDENGDVVMADVSQKSTKSKKEEPAQRYIGSVEVLSKLNL
  transcriptional activation domain activity: < 6570

## MLCLTYLVFLRVYGHLLWVELGLFFFSFSKSNYHVIRHGLPFFCYNGAWMEFL
  transcriptional activation domain activity: 56900

## LLKAVQEDEGDDGVIVAYLDTLVPLLEDYLTSGPLGQFTLRLRLLLSFQVYAS
  transcriptional activation domain activity: 53800

## RHASRHASRHASRDASPERRTLRSNLAAAFSGHGRRSRPASPERGGGGGGGAG
  transcriptional activation domain activity: 26800

## LLISDSQLGSYLLIGFVLENFICLFGLLVHSYLSLTRMDLGSFFFFAQITNRM
  transcriptional activation domain activity: 40700

## MATVISGVCFFFFFFFFCFLLCLVMAFLLLFSFLFLCDLLLRLLLLSPSFDSL
  transcriptional activation domain activity: 31200

## DARRLLSCVRMGFAFYASGCMSTSLILFFSFCLLLPPILTGYQILWLLCIILP
  transcriptional activation domain activity: 68400

## VSTCLIKFLALIIEDLHHYFDPFQLKLIGVLVTWYEGAFAKSLFPGELISSEA
  transcriptional activation domain activity: 52400

## SDSDEEDEDERAEDAEVDTSASVNRLRDAQAEVETGDVTRRIAIVNLDWDHIK
  transcriptional activation domain activity: 29200

## VFFVWICCCYGTHILSVFVDPSGMYIVPLNILGSLLHGSTLPCIVASWLIIHL
  transcriptional activation domain activity: 45600

## EMAVACISVLILIGYNTIILYVYPLYPTRSPLRLSETYINHLLSNFLWWFIMF
  transcriptional activation domain activity: 59100

## HWRAFVTGGGSAFWLLAYGIFYWASRLSLDSFTSVILYLGYLVLLALMDFLVT
  transcriptional activation domain activity: 20300

## PPPPPPPPPGPSPARFAPPPAPPPPPPPSGRPAPPPAPPPPPPPPPPAFGGGP
  transcriptional activation domain activity: 17000

## KNDCCFCYALGLFIRMDCFLRIFVCLCFDVGLYAIEFDLCSLLLACIHVHFSH
  transcriptional activation domain activity: 36300
